# Measurements reported in paper PMC12206513 (Molecular Biology of the Cell, 2025).
# Key:
# [1] = biological target: His6-importin α-CyPet / S-His6-importin β (UniProt P52292); test: FRET or BRET
# [2] = biological target: GFP-XCTK2 (full-length, wild type) (Xenopus) (UniProt P79955); test: co-sedimentation
# [3] = biological target: 6HisGFP-XCTK2-MBD2^mut (Xenopus) (UniProt P79955); test: co-sedimentation
# [4] = biological target: doubly stabilized microtubules (GMPCPP and paclitaxel) polymerized from cycled bovine tubulin (bovine, UniProt Q6B856 1-445); test: co-sedimentation
# importin α-His6 / S-His6-importin β, sequence (Q14974 whole entry, one chain of several): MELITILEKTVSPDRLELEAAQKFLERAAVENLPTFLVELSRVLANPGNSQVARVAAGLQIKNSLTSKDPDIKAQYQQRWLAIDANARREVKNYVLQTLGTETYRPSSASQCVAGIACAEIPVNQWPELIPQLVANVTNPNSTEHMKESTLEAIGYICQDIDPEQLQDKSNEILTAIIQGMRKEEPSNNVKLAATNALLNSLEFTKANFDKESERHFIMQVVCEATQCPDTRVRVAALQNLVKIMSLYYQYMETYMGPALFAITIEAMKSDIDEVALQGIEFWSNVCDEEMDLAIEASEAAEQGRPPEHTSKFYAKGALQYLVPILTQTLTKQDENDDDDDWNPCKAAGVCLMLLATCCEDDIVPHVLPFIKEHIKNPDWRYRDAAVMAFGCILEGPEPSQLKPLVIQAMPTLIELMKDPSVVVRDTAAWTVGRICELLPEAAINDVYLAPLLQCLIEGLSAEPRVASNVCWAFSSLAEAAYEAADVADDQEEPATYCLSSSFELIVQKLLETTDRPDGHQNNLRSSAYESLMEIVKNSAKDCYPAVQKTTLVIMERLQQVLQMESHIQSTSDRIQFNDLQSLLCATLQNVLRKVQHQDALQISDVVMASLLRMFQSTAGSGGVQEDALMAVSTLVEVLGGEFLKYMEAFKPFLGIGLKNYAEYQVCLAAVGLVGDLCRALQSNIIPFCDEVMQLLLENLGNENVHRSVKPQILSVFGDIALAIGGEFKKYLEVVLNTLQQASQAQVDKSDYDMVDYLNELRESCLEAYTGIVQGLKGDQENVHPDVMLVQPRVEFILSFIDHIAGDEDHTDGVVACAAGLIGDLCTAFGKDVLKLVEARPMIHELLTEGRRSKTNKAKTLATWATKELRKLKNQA
# GFP-XCTK2 (full-length, wild type) (Xenopus), sequence (P79955 whole entry): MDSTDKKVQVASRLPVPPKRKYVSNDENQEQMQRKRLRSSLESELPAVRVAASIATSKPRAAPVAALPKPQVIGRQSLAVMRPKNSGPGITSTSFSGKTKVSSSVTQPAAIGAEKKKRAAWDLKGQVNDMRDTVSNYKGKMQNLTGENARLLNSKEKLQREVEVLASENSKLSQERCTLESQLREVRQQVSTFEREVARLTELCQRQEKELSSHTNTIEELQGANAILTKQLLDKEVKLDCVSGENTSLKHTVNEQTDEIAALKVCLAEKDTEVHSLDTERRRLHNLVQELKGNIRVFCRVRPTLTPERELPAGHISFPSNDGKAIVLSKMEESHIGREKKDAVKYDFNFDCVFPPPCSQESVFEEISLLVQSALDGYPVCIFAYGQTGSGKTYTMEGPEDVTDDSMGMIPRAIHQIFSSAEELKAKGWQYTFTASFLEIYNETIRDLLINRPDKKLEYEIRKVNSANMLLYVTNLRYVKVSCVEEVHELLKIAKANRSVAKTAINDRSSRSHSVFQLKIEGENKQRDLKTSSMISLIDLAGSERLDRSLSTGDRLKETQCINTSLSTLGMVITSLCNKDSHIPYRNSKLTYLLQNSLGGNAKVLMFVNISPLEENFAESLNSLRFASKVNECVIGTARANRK
fold higher apparent Kd than YPet-Tail [1] [fold],stoichiometry N [4] [per tubulin dimer],Molecule,further results
8,,YPet-Tail C2 (from UniProt P79955 62-120) (domain or fragment),
8,,YPet-Tail C3 (from UniProt P79955 80-120) (domain or fragment),
,,importin α-His6 / S-His6-importin β (from UniProt P52292 1-529; Q14974 1-876) (complex),percent reduction of MT binding by 0.4 µM importin α/β [2]: 64%; percent reduction of MT binding by 0.4 µM importin α/β [3]: 43%
,1.1,"YPet-Tail C2 (domain or fragment, Xenopus, UniProt P79955 62-120, looked up) APVAALPKPQVIGRQSLAVMRPKNSGPGITSTSFSGKTKVSSSVTQPAAIGAEKKKRAA",
,1.1,"YPet-Tail N3 (domain or fragment, Xenopus, UniProt P79955 2-79, looked up) DSTDKKVQVASRLPVPPKRKYVSNDENQEQMQRKRLRSSLESELPAVRVAASIATSKPRAAPVAALPKPQVIGRQSLA",fold higher apparent MT affinity than YPet-Tail C2 [4]: ~2 fold
,,YPet-Tail N3-MBD1^mut (domain or fragment) DSTDKKVQVASRLPVPPAAAYVSNDENQEQMQAAALRSSLESELPAVRVAASIATSKPRAAPVAALPKPQVIGRQSLA,fold higher Kd than YPet-Tail N3 [4]: 10 fold
